Source: the Immune Epitope Database (IEDB)

How the values were obtained:
Experiment in all cases: IEDB peptide-MHC binding, purified MHC/competitive/radioactivity; filed as Kd, often an IC50 or EC50 that approximates it; ≥ and ≤ were set here for values at or beyond the usual limits of such assays
HLA-A*03:01 = biological target: HLA-A*03:01
HLA-A*11:01 = biological target: HLA-A*11:01
HLA-A*31:01 = biological target: HLA-A*31:01
HLA-A*33:01 = biological target: HLA-A*33:01
HLA-A*68:01 = biological target: HLA-A*68:01
[1] = source organism: Vaccinia virus WR
[2] = source organism: Dengue virus 2 Jamaica/1409/1983
[3] = source organism: SARS coronavirus Tor2
[4] = source organism: Dengue virus 1 Brazil/97-11/1997
[5] = source organism: Dengue virus 4 Philippines/H241/1956
[6] = source organism: Lymphocytic choriomeningitis virus (strain Armstrong)
[7] = source organism: Dengue virus 4 Dominica/814669/1981
[8] = source organism: Mammarenavirus whitewaterense
[9] = source organism: Dengue virus 1 Nauru/West Pac/1974
[10] = source organism: Dengue virus 3 Martinique/1243/1999
[11] = source organism: Dengue virus 3 Singapore/8120/1995
[12] = source organism: Mammarenavirus guanaritoense

## NAVYQCRKLR
HLA-A*03:01; [1]
  Kd: 7270 nM
HLA-A*11:01; [1]
  Kd: 17700 nM
HLA-A*31:01; [1]
  Kd: 348 nM
HLA-A*33:01; [1]
  Kd: 6350 nM
HLA-A*68:01; [1]
  Kd: 332 nM

## VTRLENLMWK
HLA-A*11:01; [2]
  Kd: 128 nM

## AISDYDYYR
HLA-A*03:01; [3]
  Kd: 86.5 nM
HLA-A*11:01; [3]
  Kd: 65 nM
HLA-A*31:01; [3]
  Kd: 26 nM
HLA-A*33:01; [3]
  Kd: 490 nM
HLA-A*68:01; [3]
  Kd: 118 nM

## KWLWGFLSR
HLA-A*31:01; [4]
  Kd: ≥ 77900 nM

## EVGSIRCVK
HLA-A*03:01; [1]
  Kd: 543 nM
HLA-A*11:01; [1]
  Kd: 332 nM
HLA-A*31:01; [1]
  Kd: 5910 nM
HLA-A*33:01; [1]
  Kd: 83 nM
HLA-A*68:01; [1]
  Kd: 1.19 nM

## GIFLFLMSGK
HLA-A*03:01; [2]
  Kd: 85.5 nM
HLA-A*11:01; [2]
  Kd: 549 nM

## AVNTPVSMTY
HLA-A*03:01; [1]
  Kd: 71.5 nM
HLA-A*11:01; [1]
  Kd: 20.7 nM
HLA-A*31:01; [1]
  Kd: 7440 nM
HLA-A*33:01; [1]
  Kd: ≥ 70000 nM
HLA-A*68:01; [1]
  Kd: 4660 nM

## LIVTFRERY
HLA-A*03:01; [1]
  Kd: 4680 nM
HLA-A*11:01; [1]
  Kd: 187 nM
HLA-A*31:01; [1]
  Kd: 836 nM
HLA-A*33:01; [1]
  Kd: 4130 nM
HLA-A*68:01; [1]
  Kd: 408 nM

## KLVTQWCCR
HLA-A*31:01; [5]
  Kd: 11.9 nM

## YIPGTSVIR
HLA-A*03:01; [1]
  Kd: ≥ 78000 nM
HLA-A*11:01; [1]
  Kd: ≥ 77900 nM
HLA-A*31:01; [1]
  Kd: 664 nM
HLA-A*33:01; [1]
  Kd: 2900 nM
HLA-A*68:01; [1]
  Kd: 40.4 nM

## YSKFWYLEH
HLA-A*03:01; [6]
  Kd: ≥ 78000 nM
HLA-A*11:01; [6]
  Kd: ≥ 40900 nM
HLA-A*31:01; [6]
  Kd: 6010 nM
HLA-A*33:01; [6]
  Kd: 12400 nM
HLA-A*68:01; [6]
  Kd: ≥ 77600 nM

## QSQMLLIVLK
HLA-A*03:01; [3]
  Kd: 1620 nM
HLA-A*11:01; [3]
  Kd: 10.8 nM
HLA-A*31:01; [3]
  Kd: 1410 nM
HLA-A*33:01; [3]
  Kd: 11700 nM
HLA-A*68:01; [3]
  Kd: 207 nM

## AVMYMGTLSY
HLA-A*03:01; [3]
  Kd: 7.67 nM
HLA-A*11:01; [3]
  Kd: 7.78 nM
HLA-A*31:01; [3]
  Kd: 3200 nM
HLA-A*33:01; [3]
  Kd: 10800 nM
HLA-A*68:01; [3]
  Kd: 2580 nM

## QSYRQYRNY
HLA-A*03:01; [1]
  Kd: 2560 nM
HLA-A*11:01; [1]
  Kd: 1600 nM
HLA-A*31:01; [1]
  Kd: 2270 nM
HLA-A*33:01; [1]
  Kd: 109 nM
HLA-A*68:01; [1]
  Kd: 17100 nM

## STRHPSKLR
HLA-A*03:01; [3]
  Kd: 440 nM
HLA-A*11:01; [3]
  Kd: 3210 nM
HLA-A*31:01; [3]
  Kd: 9.74 nM
HLA-A*33:01; [3]
  Kd: 246 nM
HLA-A*68:01; [3]
  Kd: 101 nM

## PVVAAIITR
HLA-A*03:01; [3]
  Kd: 11200 nM
HLA-A*11:01; [3]
  Kd: 1790 nM
HLA-A*31:01; [3]
  Kd: 1240 nM
HLA-A*33:01; [3]
  Kd: 7790 nM
HLA-A*68:01; [3]
  Kd: 269 nM

## VVVKDDPDHY
HLA-A*03:01; [1]
  Kd: ≥ 28000 nM
HLA-A*11:01; [1]
  Kd: ≥ 21600 nM
HLA-A*31:01; [1]
  Kd: ≥ 70000 nM
HLA-A*33:01; [1]
  Kd: ≥ 70000 nM
HLA-A*68:01; [1]
  Kd: ≥ 70200 nM

## SSGFYFEIAR
HLA-A*03:01; [1]
  Kd: ≥ 21300 nM
HLA-A*11:01; [1]
  Kd: 90.6 nM
HLA-A*31:01; [1]
  Kd: 14.2 nM
HLA-A*33:01; [1]
  Kd: 179 nM
HLA-A*68:01; [1]
  Kd: 13.3 nM

## GLALYYPSAR
HLA-A*03:01; [3]
  Kd: 226 nM
HLA-A*11:01; [3]
  Kd: 1120 nM
HLA-A*31:01; [3]
  Kd: 993 nM
HLA-A*33:01; [3]
  Kd: 2840 nM
HLA-A*68:01; [3]
  Kd: 89.8 nM

## AIKILIGFRK
HLA-A*03:01; [7]
  Kd: 215 nM
HLA-A*11:01; [7]
  Kd: 432 nM

## GSSADLSLEK
HLA-A*11:01; [4]
  Kd: 76 nM

## KWMLISSELK
HLA-A*03:01; [8]
  Kd: 19.9 nM
HLA-A*11:01; [8]
  Kd: 248 nM
HLA-A*31:01; [8]
  Kd: 127 nM
HLA-A*33:01; [8]
  Kd: 10500 nM
HLA-A*68:01; [8]
  Kd: 891 nM

## ELQSVLVTTY
HLA-A*03:01; [1]
  Kd: 2000 nM
HLA-A*11:01; [1]
  Kd: 603 nM
HLA-A*31:01; [1]
  Kd: 16100 nM
HLA-A*33:01; [1]
  Kd: ≥ 61800 nM
HLA-A*68:01; [1]
  Kd: 1480 nM

## WYMWQVKTQR
HLA-A*33:01; [5]
  Kd: 2.54 nM

## STVSQLAKR
HLA-A*31:01; [9]
  Kd: ≥ 77900 nM
HLA-A*68:01; [9]
  Kd: 9.66 nM

## VMAFHLSTR
HLA-A*31:01; source organism: Dengue virus 4 Thailand/0348/1991
  Kd: 9.39 nM

## ETTILDVDLR
HLA-A*68:01; [5]
  Kd: 45 nM

## ALTPPVSDLK
HLA-A*03:01; [7]
  Kd: 86.9 nM

## HLAIMAVFK
HLA-A*03:01; [5]
  Kd: 5.77 nM
HLA-A*68:01; [5]
  Kd: 70.6 nM

## QLKLNWFKK
HLA-A*03:01; [2]
  Kd: 134 nM

## MLINRFTMK
HLA-A*03:01; [2]
  Kd: 3.57 nM
HLA-A*11:01; [2]
  Kd: 116 nM

## IQKITVFNK
HLA-A*68:01; [1]
  Kd: ≥ 30300 nM

## AIFKLTYQNK
HLA-A*03:01; [2]
  Kd: 41.4 nM
HLA-A*11:01; [2]
  Kd: 57.5 nM

## EMGANFRAGR
HLA-A*31:01; [5]
  Kd: 67.3 nM
HLA-A*33:01; [5]
  Kd: 7.51 nM

## QAIDGEFRLR
HLA-A*68:01; [5]
  Kd: 15.5 nM

## ATTVITPMLR
HLA-A*11:01; [10]
  Kd: 222 nM
HLA-A*31:01; [10]
  Kd: 163 nM
HLA-A*68:01; [10]
  Kd: 47.2 nM

## DAIDGEYRLR
HLA-A*33:01; [2]
  Kd: 246 nM
HLA-A*68:01; [2]
  Kd: 17.1 nM

## ITANPVVTKK
HLA-A*11:01; [10]
  Kd: 84.6 nM
HLA-A*68:01; [10]
  Kd: 23.9 nM

## ATLAFHLTSR
HLA-A*31:01; [11]
  Kd: 2.69 nM
HLA-A*68:01; [11]
  Kd: 50.9 nM

## KKSKAINVLR
HLA-A*31:01; [2]
  Kd: 163 nM

## NIVMLHTTER
HLA-A*33:01; [5]
  Kd: 83.8 nM
HLA-A*68:01; [5]
  Kd: 16.9 nM

## ITENKIWGR
HLA-A*33:01; [9]
  Kd: 141 nM

## GYVLGIFLR
HLA-A*31:01; [5]
  Kd: 15.7 nM
HLA-A*33:01; [5]
  Kd: 39.8 nM

## IAVSMANIFR
HLA-A*31:01; [2]
  Kd: 37.4 nM
HLA-A*33:01; [2]
  Kd: 279 nM
HLA-A*68:01; [2]
  Kd: 17.3 nM

## IVSSVNTTSK
HLA-A*03:01; [5]
  Kd: 37.2 nM
HLA-A*11:01; [5]
  Kd: 234 nM

## DYEVDEDIFR
HLA-A*33:01; [5]
  Kd: 471 nM

## EDKAWLVHR
HLA-A*33:01; [2]
  Kd: 15.6 nM

## FESLFKCLSH
HLA-A*03:01; [12]
  Kd: 5530 nM
HLA-A*31:01; [12]
  Kd: 608 nM
HLA-A*33:01; [12]
  Kd: 2750 nM

## MVLLQMENK
HLA-A*11:01; source organism: Dengue virus 2 Thailand/NGS-C/1944
  Kd: 227 nM

## DTMTYKCPR
HLA-A*31:01; [4]
  Kd: 4880 nM
HLA-A*33:01; [4]
  Kd: 6.64 nM
HLA-A*68:01; [4]
  Kd: 67.1 nM
